Reference: IntAct's records for PubMed 35512704

B1: Mothers against decapentaplegic homolog 4 (Homo sapiens), Q13485 (parent)
chain: MDNMSITNTPTSNDACLSIVHSLMCHRQGGESETFAKRAIESLVKKLKEKKDELDSLITAITTNGAHPSKCVTIQRTLDGRLQVAGRKGFPHVIYARLWRWPDLHKNELKHVKYCQYAFDLKCDSVCVNPYHYERVVSPGIDLSGLTLQSNAPSSMMVKDEYVHDFEGQPSLSTEGHSIQTIQHPPSNRASTETYSTPALLAPSESNATSTANFPNIPVASTSQPASILGGSHSEGLLQIASGPQPGQQQNGFTGQPATYHHNSTTTWTGSRTAPYTPNLPHHQNGHLQHHPPMPPHPGHYWPVHNELAFQPPISNHPAPEYWCSIAYFEMDVQVGETFKVPSSCPIVTVDGYVDPSGGDRFCLGQLSNVHRTEAIERARLHIGKGVQLECKGEGDVWVRCLSDHAVFVQSYYLDREAGRAPGDAVHKIYPSAYIKVFDLRQCHRQMQQQAATAQAAAAAQAAAVAGNIPGPGSVGGIAPAISLSAAAGIGVDDLRRLCILRMSFVKGWGPDYPRQSIKETPCWIEIHLHRALQLLDEVLHTMPIADPQPLD
partner: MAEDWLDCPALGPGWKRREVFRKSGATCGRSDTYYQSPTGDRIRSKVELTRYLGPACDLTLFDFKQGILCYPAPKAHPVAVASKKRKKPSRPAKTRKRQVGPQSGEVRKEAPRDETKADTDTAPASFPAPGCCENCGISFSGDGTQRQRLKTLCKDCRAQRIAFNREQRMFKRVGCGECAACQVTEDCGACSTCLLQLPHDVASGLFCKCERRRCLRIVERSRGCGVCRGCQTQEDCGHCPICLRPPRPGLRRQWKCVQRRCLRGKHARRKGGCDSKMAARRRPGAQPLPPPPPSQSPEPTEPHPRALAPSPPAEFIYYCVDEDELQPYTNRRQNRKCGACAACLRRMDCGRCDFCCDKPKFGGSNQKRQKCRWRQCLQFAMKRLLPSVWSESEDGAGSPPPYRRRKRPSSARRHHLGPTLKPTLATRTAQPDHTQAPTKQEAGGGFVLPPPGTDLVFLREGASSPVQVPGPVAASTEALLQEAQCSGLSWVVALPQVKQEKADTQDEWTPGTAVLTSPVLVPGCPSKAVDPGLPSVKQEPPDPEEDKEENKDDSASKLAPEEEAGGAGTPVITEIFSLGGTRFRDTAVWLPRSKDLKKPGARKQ
B2: Mothers against decapentaplegic homolog 4 (Homo sapiens), Q13485 (parent)
chain: B1 chain
partner: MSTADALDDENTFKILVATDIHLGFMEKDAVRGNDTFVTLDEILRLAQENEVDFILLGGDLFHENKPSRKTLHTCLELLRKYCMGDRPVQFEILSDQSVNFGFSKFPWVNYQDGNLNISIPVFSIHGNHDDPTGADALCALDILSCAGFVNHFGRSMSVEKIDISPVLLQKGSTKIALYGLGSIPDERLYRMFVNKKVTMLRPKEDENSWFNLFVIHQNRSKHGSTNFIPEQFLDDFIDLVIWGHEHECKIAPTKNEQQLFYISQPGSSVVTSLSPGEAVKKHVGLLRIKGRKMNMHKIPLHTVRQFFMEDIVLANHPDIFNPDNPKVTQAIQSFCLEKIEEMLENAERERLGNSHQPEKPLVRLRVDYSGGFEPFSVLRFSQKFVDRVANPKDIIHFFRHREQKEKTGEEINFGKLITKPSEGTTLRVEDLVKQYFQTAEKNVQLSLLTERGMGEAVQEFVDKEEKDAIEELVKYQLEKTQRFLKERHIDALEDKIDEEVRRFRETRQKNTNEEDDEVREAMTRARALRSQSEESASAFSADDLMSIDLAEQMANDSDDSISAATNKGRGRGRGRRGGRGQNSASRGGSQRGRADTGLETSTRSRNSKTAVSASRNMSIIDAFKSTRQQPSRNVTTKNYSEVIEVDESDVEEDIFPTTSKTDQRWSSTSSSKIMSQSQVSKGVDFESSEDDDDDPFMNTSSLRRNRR
B3: Mothers against decapentaplegic homolog 4 (Homo sapiens), Q13485 (parent)
chain: B1 chain
partner: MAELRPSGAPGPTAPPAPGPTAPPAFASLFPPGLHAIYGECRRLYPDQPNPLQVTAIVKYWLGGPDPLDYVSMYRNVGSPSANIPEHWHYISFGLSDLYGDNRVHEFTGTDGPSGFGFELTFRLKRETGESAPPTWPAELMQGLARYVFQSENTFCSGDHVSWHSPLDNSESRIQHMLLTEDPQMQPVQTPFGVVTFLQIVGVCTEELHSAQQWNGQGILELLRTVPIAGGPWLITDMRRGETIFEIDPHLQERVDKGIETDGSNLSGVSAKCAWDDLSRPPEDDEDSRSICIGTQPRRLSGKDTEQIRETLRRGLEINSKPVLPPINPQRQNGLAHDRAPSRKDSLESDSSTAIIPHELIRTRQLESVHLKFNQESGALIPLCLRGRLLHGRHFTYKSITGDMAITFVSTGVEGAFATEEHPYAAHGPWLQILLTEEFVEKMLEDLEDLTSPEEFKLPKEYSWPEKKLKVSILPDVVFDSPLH
B4: Mothers against decapentaplegic homolog 4 (Homo sapiens), Q13485 (parent)
chain: B1 chain
partner: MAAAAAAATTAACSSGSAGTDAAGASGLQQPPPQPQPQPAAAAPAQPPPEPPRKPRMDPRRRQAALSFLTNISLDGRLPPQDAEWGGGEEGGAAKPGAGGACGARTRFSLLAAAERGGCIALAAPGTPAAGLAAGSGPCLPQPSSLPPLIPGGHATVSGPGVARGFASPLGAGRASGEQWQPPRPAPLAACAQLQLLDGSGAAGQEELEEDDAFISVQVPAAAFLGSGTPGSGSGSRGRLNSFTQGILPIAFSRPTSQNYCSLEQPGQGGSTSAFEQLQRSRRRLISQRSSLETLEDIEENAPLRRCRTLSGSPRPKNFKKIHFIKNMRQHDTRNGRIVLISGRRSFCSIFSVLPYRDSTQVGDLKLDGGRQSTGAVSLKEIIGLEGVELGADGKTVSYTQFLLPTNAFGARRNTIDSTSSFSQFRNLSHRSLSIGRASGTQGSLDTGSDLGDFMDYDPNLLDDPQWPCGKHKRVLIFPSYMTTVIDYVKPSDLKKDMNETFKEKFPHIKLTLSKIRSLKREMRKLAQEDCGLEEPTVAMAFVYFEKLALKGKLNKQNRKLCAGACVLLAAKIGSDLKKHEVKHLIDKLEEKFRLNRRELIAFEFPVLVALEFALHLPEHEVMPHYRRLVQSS
B5: Mothers against decapentaplegic homolog 4 (Homo sapiens), Q13485 (parent)
chain: B1 chain
partner: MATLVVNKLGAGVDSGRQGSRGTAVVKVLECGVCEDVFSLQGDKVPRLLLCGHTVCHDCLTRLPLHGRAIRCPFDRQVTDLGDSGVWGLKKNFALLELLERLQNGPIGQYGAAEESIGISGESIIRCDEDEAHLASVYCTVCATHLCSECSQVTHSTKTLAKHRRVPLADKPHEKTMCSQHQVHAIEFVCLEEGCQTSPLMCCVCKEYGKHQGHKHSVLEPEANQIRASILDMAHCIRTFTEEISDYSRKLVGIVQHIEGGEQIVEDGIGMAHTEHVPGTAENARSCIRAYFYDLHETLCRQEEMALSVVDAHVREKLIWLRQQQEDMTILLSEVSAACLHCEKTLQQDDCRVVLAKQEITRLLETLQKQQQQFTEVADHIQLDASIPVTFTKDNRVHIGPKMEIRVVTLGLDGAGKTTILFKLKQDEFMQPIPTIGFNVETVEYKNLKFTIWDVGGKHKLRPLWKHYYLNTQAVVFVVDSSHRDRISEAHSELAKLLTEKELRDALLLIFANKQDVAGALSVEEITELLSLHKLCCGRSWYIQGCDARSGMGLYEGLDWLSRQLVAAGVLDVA
B6: Mothers against decapentaplegic homolog 4 (Homo sapiens), Q13485 (parent)
chain: B1 chain
partner: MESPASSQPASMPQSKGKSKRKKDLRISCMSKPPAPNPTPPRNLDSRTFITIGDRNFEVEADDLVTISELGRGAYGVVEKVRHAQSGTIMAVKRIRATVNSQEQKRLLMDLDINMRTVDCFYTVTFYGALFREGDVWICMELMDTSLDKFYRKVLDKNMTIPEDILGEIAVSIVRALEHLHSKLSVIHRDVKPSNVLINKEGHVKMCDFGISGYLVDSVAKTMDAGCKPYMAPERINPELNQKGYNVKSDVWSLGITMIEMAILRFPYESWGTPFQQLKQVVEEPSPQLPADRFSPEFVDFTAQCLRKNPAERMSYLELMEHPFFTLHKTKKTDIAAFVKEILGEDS
B7: Mothers against decapentaplegic homolog 4 (Homo sapiens), Q13485 (parent)
chain: B1 chain
partner: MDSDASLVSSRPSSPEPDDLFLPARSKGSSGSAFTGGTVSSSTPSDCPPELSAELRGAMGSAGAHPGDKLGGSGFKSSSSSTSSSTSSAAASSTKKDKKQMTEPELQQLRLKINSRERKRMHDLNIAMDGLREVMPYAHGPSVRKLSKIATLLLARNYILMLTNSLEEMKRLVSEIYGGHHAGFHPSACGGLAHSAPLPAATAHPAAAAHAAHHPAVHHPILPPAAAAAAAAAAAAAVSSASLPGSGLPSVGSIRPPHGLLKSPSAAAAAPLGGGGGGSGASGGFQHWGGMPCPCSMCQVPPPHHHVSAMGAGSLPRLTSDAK
B8: Mothers against decapentaplegic homolog 4 (Homo sapiens), Q13485 (parent)
chain: B1 chain
partner: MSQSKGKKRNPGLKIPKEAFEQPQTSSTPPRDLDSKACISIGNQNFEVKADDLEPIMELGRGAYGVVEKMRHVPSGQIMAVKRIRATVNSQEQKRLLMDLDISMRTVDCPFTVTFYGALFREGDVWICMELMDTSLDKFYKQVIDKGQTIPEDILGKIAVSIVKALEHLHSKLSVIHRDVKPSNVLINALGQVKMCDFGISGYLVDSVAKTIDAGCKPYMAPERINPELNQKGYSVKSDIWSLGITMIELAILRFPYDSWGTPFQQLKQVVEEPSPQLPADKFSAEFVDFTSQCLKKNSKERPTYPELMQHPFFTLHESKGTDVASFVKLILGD

Variants of: B1
Settings: with mbd1_human MBD1, Q9UIS9

Variant	effect of a mutation on the interaction
D351H	with no effect

Variants of: B2
Settings: with mre11_human MRE11, P49959

Variant	effect of a mutation on the interaction
R361H	with no effect

Variants of: B2
Settings: with mre11_human MRE11, P49959
Remark: another data set of the same source

Variant	effect of a mutation on the interaction
R361C	with no effect

Variants of: B2
Settings: with mre11_human MRE11, P49959
Remark: another data set of the same source

Variant	effect of a mutation on the interaction
G386D	with no effect

Variants of: B2
Settings: with mre11_human MRE11, P49959
Remark: another data set of the same source

Variant	effect of a mutation on the interaction
D351H	with no effect

Variants of: B3
Settings: with sufu_human SUFU

Variant	effect of a mutation on the interaction
R361H	with no effect

Variants of: B3
Settings: with sufu_human SUFU
Remark: another data set of the same source

Variant	effect of a mutation on the interaction
R361C	with no effect

Variants of: B3
Settings: with sufu_human SUFU
Remark: another data set of the same source

Variant	effect of a mutation on the interaction
D351H	with no effect

Variants of: B3
Settings: with sufu_human SUFU
Remark: another data set of the same source

Variant	effect of a mutation on the interaction
G386D	with no effect

Variants of: B4
Settings: with cabl1_human CABLES1, Q8TDN4

Variant	effect of a mutation on the interaction
G386D	with no effect

Variants of: B5
Settings: with tri23_human TRIM23, P36406

Variant	effect of a mutation on the interaction
D351H	with no effect

Variants of: B5
Settings: with tri23_human TRIM23, P36406
Remark: another data set of the same source

Variant	effect of a mutation on the interaction
G386D	with no effect

Variants of: B5
Settings: with tri23_human TRIM23, P36406
Remark: another data set of the same source

Variant	effect of a mutation on the interaction
R361C	with no effect

Variants of: B5
Settings: with tri23_human TRIM23, P36406
Remark: another data set of the same source

Variant	effect of a mutation on the interaction
R361H	with no effect

Variants of: B6
Settings: with mp2k3_human MAP2K3, P46734

Variant	effect of a mutation on the interaction
R361H	with no effect

Variants of: B7
Settings: with olig2_human OLIG2, Q13516

Variant	effect of a mutation on the interaction
G386D	with no effect

Variants of: B7
Settings: with olig2_human OLIG2, Q13516
Remark: another data set of the same source

Variant	effect of a mutation on the interaction
D351H	with no effect

Variants of: B7
Settings: with olig2_human OLIG2, Q13516
Remark: another data set of the same source

Variant	effect of a mutation on the interaction
R361C	with no effect

Variants of: B7
Settings: with olig2_human OLIG2, Q13516
Remark: another data set of the same source

Variant	effect of a mutation on the interaction
R361H	with no effect

Variants of: B8
Settings: with mp2k6_human MAP2K6, P52564

Variant	effect of a mutation on the interaction
D351H	with no effect

Variants of: B8
Settings: with mp2k6_human MAP2K6, P52564
Remark: another data set of the same source

Variant	effect of a mutation on the interaction
G386D	with no effect

Variants of: B8
Settings: with mp2k6_human MAP2K6, P52564
Remark: another data set of the same source

Variant	effect of a mutation on the interaction
R361H	with no effect

Variants of: B8
Settings: with mp2k6_human MAP2K6, P52564
Remark: another data set of the same source

Variant	effect of a mutation on the interaction
R361C	with no effect
